In patent US20240189423A1:

Tests used:
[1] = target: tumor-associated calcium signal transducer 2 (TROP2) (UniProt P09758); assay: cell-based or functional assay
[2] = target: human epidermal growth factor receptor 2 (HER2) (human) (UniProt P04626); assay: cell-based or functional assay

Chain of tumor-associated calcium signal transducer 2 (TROP2) (P09758 27-323 limits assumed): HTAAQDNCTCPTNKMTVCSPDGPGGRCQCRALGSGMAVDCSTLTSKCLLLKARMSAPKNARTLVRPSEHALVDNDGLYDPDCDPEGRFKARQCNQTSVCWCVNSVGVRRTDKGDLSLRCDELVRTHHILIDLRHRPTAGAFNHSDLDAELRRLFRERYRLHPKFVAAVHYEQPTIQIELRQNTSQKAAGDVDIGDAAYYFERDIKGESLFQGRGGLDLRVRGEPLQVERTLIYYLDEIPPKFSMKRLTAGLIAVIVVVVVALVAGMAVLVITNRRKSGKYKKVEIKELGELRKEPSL

Row | Substance | Dmax (%), TROP2, MCF7 [1] [%] | IC50 of cell viability, modified MTT assay, MDA-MB-175VII cells, 5 days [2] [nM] | IC50 of cell viability, modified MTT assay, SK-BR-3 cells, 5 days [2] [nM]
1 | CXCL12-Sacituzumab (bispecific antibody) | 51 | – | –
2 | CXCL12-Trastuzumab (bispecific antibody) | – | 86.8 | 199
